In patent US20220259593A1, “CONTROL OF MAMMALIAN GENE DOSAGE USING CRISPR” (The Regents of the University of California, priority 2019, published 2022):
Residue numbers refer to the chain shown, from its start.

B1: cr284 (nucleic acid)
guide: GTTTAAGAGCTAAGCTGGAAACAGCATAGCAAGTTTAAATAAGGCTAGTCCGTTATCAACTTGAGAAAGTGGCACCAAGTTGGTGCT
modifications: listed as DNA, chemistry not fully specified
B2: cr983 (nucleic acid)
guide: B1 guide with G65A, C73T, A77G, T81C
modifications: listed as DNA, chemistry not fully specified
B3: cr529 (nucleic acid)
guide: B1 guide with G65A, C76T, A77G, T81C, G82A
modifications: listed as DNA, chemistry not fully specified
B4: cr231 (nucleic acid)
guide: B1 guide with T49A, A77G, T81C
modifications: listed as DNA, chemistry not fully specified
B5: cr703 (nucleic acid)
guide: B1 guide with A66G, A77G, T81C
modifications: listed as DNA, chemistry not fully specified
B6: cr908 (nucleic acid)
guide: B1 guide with C75T, A77G, T81C, G83A
modifications: listed as DNA, chemistry not fully specified
B7: cr285 (nucleic acid)
guide: B1 guide with C22A, G65A, A77G, T81C
modifications: listed as DNA, chemistry not fully specified
B8: cr718 (nucleic acid)
guide: B1 guide with A59T, G65A, T70A, A74C, A77G, T81C, T84G
modifications: listed as DNA, chemistry not fully specified
B9: cr612 (nucleic acid)
guide: B1 guide with A20T, G65A, A77G, T81C
modifications: listed as DNA, chemistry not fully specified
B10: cr142 (nucleic acid)
guide: B1 guide with G65A, A77T, T81A
modifications: listed as DNA, chemistry not fully specified
B11: cr553 (nucleic acid)
guide: B1 guide with A47G, G65T, A77G, T81C
modifications: listed as DNA, chemistry not fully specified
B12: cr253 (nucleic acid)
guide: B1 guide with A59G, T61C, G65A, A68G, T70C, A77T, T81A
modifications: listed as DNA, chemistry not fully specified
B13: cr719 (nucleic acid)
guide: B1 guide with G65A, A77G, T81C, C86A
modifications: listed as DNA, chemistry not fully specified
B14: cr421 (nucleic acid)
guide: B1 guide with G65A, A68C, A77G, T81C
modifications: listed as DNA, chemistry not fully specified
B15: cr693 (nucleic acid)
guide: B1 guide with G65A, A74T, T84A
modifications: listed as DNA, chemistry not fully specified
B16: cr823 (nucleic acid)
guide: B1 guide with T62A, G65A, A67T, C76T, A77G, T81C, G82A
modifications: listed as DNA, chemistry not fully specified

System: K562 CRISPRi cells
Experiment: Constant region variant library pooled growth screen, K562
Assay type: cell-based, human
Details: sgRNA constant region variants
From the text: We calculated relative activities for each targeting sequence:constant region pair by normalizing its phenotype to that of the targeting sequence paired with the unmodified constant region, identifying 409 constant region variants that on average conferred intermediate activity (0.1-0.9, FIG. 5B). Ten variants selected for individual evaluation also mediated intermediate levels of mRNA knockdown (FIG. 6B). Mapping the activities of constant region variants with single base substitutions onto the structure recapitulated known relationships between constant region structure and function (FIG. 5C).
The sequences in the library of modified constant regions were derived from the sgRNA (F+E) optimized sequence (23) modified to include a BlpI site (15). Each modified constant region was paired with 36 sgRNA targeting sequences (3 sgRNAs targeting each of 10 essential genes and six non-targeting negative control sgRNAs). The cloning strategy (described below) allowed the mutation of most positions in the sgRNA constant region. A variety of modifications were made, including substitutions of all single bases not in the BlpI restriction site (which is used for cloning), double substitutions including all substitutions at base-paired position pairs not before or in the BlpI site, and a variety of triple, quadruple, and sextuple substitutions, including base-pair-preserving substitutions at adjacent base-pairs.
The library was ordered and cloned in two parts. One part consisted of ˜100 modifications to the eight bases upstream of the BlpI restriction site. Constant region variants with mutations in this section were paired with each of the 36 targeting sequences, ordered as a pooled oligonucleotide library (Twist Biosciences), and cloned into pCRISPRia-v2 as described above. The second part consisted of ˜900 modifications to the 71 bases downstream of the BlpI restriction site. This part was cloned in two steps. First, all 36 targeting sequences were individually cloned into pCRISPRia-v2 as described above. The vectors were then pooled at an equimolar ratio and digested with BlpI (NEB) and XhoI (NEB). The modified constant region variants were ordered as a pooled oligonucleotide library (Twist Biosciences), PCR amplified with Phusion polymerase (NEB), digested with BlpI (NEB) and XhoI (NEB), and ligated into the digested vector pool, in a manner identical to previously published protocols and as described above, except for the different restriction enzymes.
Screens with the compact mismatched sgRNA library and the constant region library were conducted largely as described above, with smaller modifications during the screening procedure and an updated sequencing library preparation protocol. Briefly, the libraries were transduced in duplicate into K562 CRISPRi (both libraries) or HeLa CRISPRi cells (compact mismatched sgRNA library) as described above. K562 replicates were maintained separately in 0.15 to 0.3 L of RPMI-1640 in 0.3 L spinner flasks for the course of the screen. HeLa replicates were maintained in sets of ten 15-cm plates. Cells were selected with puromycin as described above (K562: 1 day of 0.75 μg/mL and 1 day of 0.85 μg/mL; HeLa: 2 days of 0.8 μg/mL and 1 day of 1 μg/mL). The remainder of the screen was carried out at >1000× library coverage (K562 compact mismatched sgRNA library: >2000×; HeLa compact mismatched sgRNA library: >1000×; K562 constant region library: >2000×). Multiple samples were harvested after 4 to 8 days of growth. For the drug screen, 10 μM lovastatin (ApexBio) or an equivalent volume of DMSO (vehicle) was added to flasks at t=0, and 3 days later cells were pelleted and re-suspended in fresh medium. Lovastatin (12 μM) or DMSO was again added after 5 and 9 days of growth, with media exchanges 3 days after drug supplementation. Multiple samples were harvested after 4 to 8 days for the K562 and HeLa growth screens. […]

[1] = activity relative to the un-modified constant region cr995

Molecule	Mean relative activity [1]	Mean relative activity (activity relative to the original, un-modified constant region cr995)
B1	0.9497	
B2	0.9491	
B3	0.9488	
B4	0.9485	
B5	0.9472	
B6	0.9455	
B7	0.9449	
B8	0.9447	
B9		1.064
B10	0.9406	
B11	0.9385	
B12	0.9384	
B13	0.9381	
B14	0.9381	
B15	0.9369	
B16	0.936	
